Reference: patent publication EP1292709B1
Where no end group is shown, it is not given here.

Molecular target: receptors that recognize the sequence GRGDSPG
Test: cell-based or functional assay

Binder: GC(PEG acrylate)GYGRGDSPG […]
- adhesion and spreading of human foreskin fibroblasts on conjugate addition gels, 6 hours post-seeding: 50%
